The values below are quoted from earlier work in publication PMC11111649.

Broadly, the Kd is the free concentration of one partner at which half of the binding sites on the other are occupied at equilibrium, for simple one-to-one binding.

In the data set the target is Angiotensin II (Homo sapiens) (UniProt P01019).
Sequence of UniProt P01019 (P01019 whole entry, looked up): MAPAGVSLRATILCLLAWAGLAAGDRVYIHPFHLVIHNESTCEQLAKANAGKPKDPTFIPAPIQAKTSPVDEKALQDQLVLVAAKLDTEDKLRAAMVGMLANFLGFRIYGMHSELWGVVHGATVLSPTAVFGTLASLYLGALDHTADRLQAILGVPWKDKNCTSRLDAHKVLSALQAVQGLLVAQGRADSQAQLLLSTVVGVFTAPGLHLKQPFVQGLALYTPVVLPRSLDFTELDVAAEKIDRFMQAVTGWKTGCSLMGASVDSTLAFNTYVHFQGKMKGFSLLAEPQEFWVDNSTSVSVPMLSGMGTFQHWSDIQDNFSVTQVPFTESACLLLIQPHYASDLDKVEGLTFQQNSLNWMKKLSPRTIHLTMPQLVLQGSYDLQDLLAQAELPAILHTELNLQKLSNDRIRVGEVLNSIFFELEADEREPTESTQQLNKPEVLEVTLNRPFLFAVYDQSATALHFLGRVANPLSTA

AT1R (from UniProt P30556): the Kd is 1 nM.
